Data on 14 molecules can be found in patent US20250019450A1 (DIAGONAL THERAPEUTICS, published 2025).

In test [1] the target is T1, human IL-12RB1 with C-terminal FLAG tag, transiently expressed on HEK-293T cells (human, UniProt P42701 24-662).
T1 construct: whole, on cells
Description: FACS, periplasmic extract, HEK-293T.

The target of test [2] is T2, cyno IL-12RB1 with C-terminal FLAG tag, transiently expressed on HEK-293T cells (cyno, UniProt A0A2K5VWV1 24-662).
T2 construct: whole, on cells
The test can be described thus: FACS, periplasmic extract, HEK-293T.

Test [3] concerns the target T3, human IL-12Rβ1-his (Acro Biosystems), biotinylated (human, UniProt P42701 24-545, biotinylated).
T3 construct: bought; captured on Neutravidin in the ELISA; also called Bio-huIL-12Rβ1-His
The test can be described thus: ELISA, periplasmic extract.

The target in test [4] is T4, human IL-12RB2 with C-terminal HA tag, transiently expressed on HEK-293T cells (human, UniProt Q99665 24-862).
T4 construct: whole, on cells; also called human IL-12Rβ2
T4 sequence (looked up): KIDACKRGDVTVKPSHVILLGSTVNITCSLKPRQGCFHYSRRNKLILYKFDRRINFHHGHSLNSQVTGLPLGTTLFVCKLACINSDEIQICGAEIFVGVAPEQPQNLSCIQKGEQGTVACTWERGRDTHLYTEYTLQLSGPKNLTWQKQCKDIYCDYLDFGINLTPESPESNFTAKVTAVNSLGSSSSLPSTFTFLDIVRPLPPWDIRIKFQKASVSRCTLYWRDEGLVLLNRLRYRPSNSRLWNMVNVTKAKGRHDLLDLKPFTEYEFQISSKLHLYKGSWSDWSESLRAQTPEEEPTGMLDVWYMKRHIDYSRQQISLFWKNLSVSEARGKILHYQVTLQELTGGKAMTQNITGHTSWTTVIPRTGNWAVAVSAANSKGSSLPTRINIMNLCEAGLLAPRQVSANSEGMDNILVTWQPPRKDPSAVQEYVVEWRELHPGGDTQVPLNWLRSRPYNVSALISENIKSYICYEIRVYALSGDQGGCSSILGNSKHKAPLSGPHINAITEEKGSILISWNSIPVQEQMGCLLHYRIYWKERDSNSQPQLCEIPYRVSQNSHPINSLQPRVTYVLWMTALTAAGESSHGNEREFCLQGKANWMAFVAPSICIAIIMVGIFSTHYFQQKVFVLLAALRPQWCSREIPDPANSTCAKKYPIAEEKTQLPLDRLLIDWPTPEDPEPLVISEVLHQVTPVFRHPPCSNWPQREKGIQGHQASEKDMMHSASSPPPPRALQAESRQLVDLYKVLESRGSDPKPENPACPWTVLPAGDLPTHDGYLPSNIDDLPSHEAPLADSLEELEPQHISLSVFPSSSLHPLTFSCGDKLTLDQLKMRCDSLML
The test can be described thus: FACS, periplasmic extract, HEK-293T.

Test [5] has as its target T5, cyno IL-12RB2 with C-terminal HA tag, transiently expressed on HEK-293T cells (cyno, UniProt A0A2K5VNI7 24-860).
T5 construct: whole, on cells; also called cyno IL-12Rβ2
T5 sequence: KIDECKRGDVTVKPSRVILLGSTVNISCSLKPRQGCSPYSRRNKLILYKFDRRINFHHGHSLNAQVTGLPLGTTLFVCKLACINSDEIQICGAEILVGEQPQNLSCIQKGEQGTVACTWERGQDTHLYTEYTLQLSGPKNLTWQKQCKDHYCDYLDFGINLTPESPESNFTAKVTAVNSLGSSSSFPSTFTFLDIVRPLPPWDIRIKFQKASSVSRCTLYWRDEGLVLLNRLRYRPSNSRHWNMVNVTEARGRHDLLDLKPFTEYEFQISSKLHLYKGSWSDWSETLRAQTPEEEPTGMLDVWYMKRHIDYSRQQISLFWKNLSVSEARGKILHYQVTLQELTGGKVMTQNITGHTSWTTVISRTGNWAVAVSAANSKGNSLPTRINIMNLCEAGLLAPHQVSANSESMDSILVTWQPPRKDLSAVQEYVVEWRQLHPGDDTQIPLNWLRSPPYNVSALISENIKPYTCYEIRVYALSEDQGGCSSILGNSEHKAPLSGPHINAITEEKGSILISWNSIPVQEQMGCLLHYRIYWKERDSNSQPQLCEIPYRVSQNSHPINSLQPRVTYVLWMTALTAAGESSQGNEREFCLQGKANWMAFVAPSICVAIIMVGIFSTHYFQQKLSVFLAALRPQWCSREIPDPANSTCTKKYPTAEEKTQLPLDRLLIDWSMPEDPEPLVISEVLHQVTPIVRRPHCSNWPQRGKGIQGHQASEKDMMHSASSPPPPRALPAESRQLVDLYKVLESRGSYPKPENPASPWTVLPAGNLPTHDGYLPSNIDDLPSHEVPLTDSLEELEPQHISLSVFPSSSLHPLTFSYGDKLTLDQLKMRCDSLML
Description: FACS, periplasmic extract, HEK-293T.

Test [6] deals with T6, human IL-12RB1 overexpressed on 293T cells (Example 2) (human, UniProt P42701 24-662).
T6 construct: whole, on cells
The test can be described thus: FACS, hybridoma supernatant, 293T.

Test [7] deals with T7, cyno IL-12RB1 overexpressed on 293T cells (Example 2) (cyno, UniProt A0A2K5VWV1 24-662).
T7 construct: whole, on cells
The test can be described thus: FACS, hybridoma supernatant, 293T.

In test [8] the target is human IL-12 receptor (IL-12Rβ1 and IL-12Rβ2) on HEK-Blue IL-12 cells (human, UniProt P42701 24-662; Q99665 24-862). The test can be described thus: cell-based or functional assay.
Test [9] has as its target human IL-12Rβ1, Acro (BLI analyte) (human, UniProt P42701 24-545). The test can be described thus: BLI (Octet), antibody on AHC tip.

B1: VHH263B1 (VHH)
VHH: EVQLVESGGGLVQAGGSLRLSCAASGSKFSFNAMGWYRQTPGKQRELVAIIINGDMINYADSVKGRFTISRDNAKNTMYLQMNSLKPEDTAVYYCKMTRYVYDYWGQGTQVTVSS
As for B1, the FOB was found to be 105 fold in test [1] and 89 fold in [2]. The molecule also gave an OD450 nm in [3] of 0.144.

B2: VHH258B1 (VHH)
VHH: QVQLVESGGGLVQAGGSLRLSCAASGRTFSSYVMGWFRQAPGQEREFVAAIMRNGIMTYYADSVKGRFTISRDNAKNTVYLQMNTLKPDDTAVYYCAAASRVGVSISQSSSYTSWGQGTQVTVSS
For B2, the figures for the FOB in test [1] and in test [2] were 183 fold and 91 fold, respectively. This molecule registered an OD450 nm in test [3] of 3.3.

B3: VHH211B2 (VHH)
VHH: QVQLVESGGGLVQAGNSLRLSCAASGRTFSSYVVGWFRQAPGKEREFVGRISWSGARTYYADSVKGRFTISRDNAKNTVYLQMNSLKPEDTAVYYCAADLKWEVLLSEHFEYWGQGTQVTVSS
Take B3: the FOB worked out at 1.64 fold in test [4] and 0.99 fold in test [5].

B4: 85801_04G19 (antibody, V domains shown)
VH: QVQLQESGPGLVKPSETLSLTCTVSGGSISSYYWSWIRQSAGKELEWIGRIYTSGSTIYNPSLKSRVTMSVDPSKNQFSLKLSSVTAADTAVYYCANSRSYPHDAFDIWGQGTMVTVSS
VL: DIQLTQSPSFLSASVGYRVTITCRASQGISSYLAWYQQKPGKAPQLLIYAASTLQSGVPSRFSGRGSGTEFTLTISSLQPEDFATYYCQQLNGYPFTFGPGTKVNIK
notes: also called 85801_04G19A
For B4, the “Fold over parental 293T” value was 262 fold in [6] and 116 fold in test [7].

B5: DGL421 (bispecific antibody, human IgG1, lambda)
heavy 1: not shown
heavy 2: QVQLQESGPGLVKPSQTLSLTCTVSGGSITTNYYYWSWIRQPPGKGLEWMGAIAYSGSTYYSPSLKSRTSISRDTSKNQFTLQLSSVTPEDTAVYYCASGINFYSNYPTLNEYDYWGQGTQVTVEPKSSDKTHTCPPCPAPEAAGAPSVFLFPPKPKDTLMISRTPEVTCVVVDVSHEDPEVKFNWYVDGVEVHNAKTKPREEQYNSTYRVVSVLTVLHQDWLNGKEYKCKVSNKALPAPIEKTISKAKGQPREPQVCTLPPSRDELTKNQVSLSCAVKGFYPSDIAVEWESNGQPENNYKTTPPVLDSDGSFFLVSKLTVDKSRWQQGNVFSCSVMHEALHNRFTQKSLSLSPG
light: QTVVTQEPSFSVSPGGTVTLTCGLTSGSVSTSYYPSWYQQTPGQAPRTLIYSTYTRSSGVPDRFSGSILGNKAALTITGAQADDESDYYCVLYMGSGIWVFGGGTKLTVLGQPKAAPSVTLFPPSSEELQANKATLVCLISDFYPGAVTVAWKADSSPVKAGVETTTPSKQSNNKYAASSYLSLTPEQWKSHRSYSCQVTHEGSTVEKTVAPTECS
notes: 85801_10K15A x 190B2
Consider B5, for which, in test [8], the EC50 was 1.1e-09 M (implied) and the “Max Absorbance” value came out at 0.9. The same molecule displayed a Kd in [9] of 6.06 nM.

B6: VHH245B1 (VHH)
VHH: QVQLQESGGGLVQAGGSLRLSCAASGSIASINAMGWYRQAPGKQRDFVARIQLSGQTSYAHSVRGRFTISRDNAKNTVYLQMNNLKPEDTAVYVCAASNTGSLYGLRNYWGQGTQVTVSS
As to B6, the figures for the FOB in test [1] and in test [2] were 78 fold and 36 fold, respectively. In [3], the OD450 nm is 3.12.

B7: VHH241B2 (VHH)
VHH: QVQLVESGGGLVQLGDSLRLSCAASGRGFSSWTMAWFRQALGKRREFVAAITATGARTCSAESEGRFTISRDNAKNMVFLQMNSLKAEDTAVYYCAATGIASWDPGMADKYTYWGQGTQVTVSS
B7 gave an FOB in test [5] of 2.37 fold.

B8: VHH277B2 (VHH)
VHH: QVQLVESGGGLVQLGDSLRLSCAASGRGFSSWTMAWFRQALGKRREFVAAITATGARTCSAESEGRFTISRDNAKNMVFLQMNSLKAEDTAVYYCAATEIAGWDPGMGDKYPYWGQGTQVTVSS
As to B8, the FOB in [4] came to 1.21 fold; in [5], 1.55 fold.

B9: VHH321B1 (VHH)
VHH: QVQLVESGGGLVQPGGSLRLSCIASGFTFSDYAMKWVRRPPGKGLEWVSVIDSEGPTIKYSDAVRGRFTISRDNAKNTLYLQMNSLKPEDTAVYYCAKSNGGSAFSSVLYTDRGQGTQVTVSS
As for B9, the FOB in [1] was 119 fold; in test [2], 93 fold. In addition, the OD450 nm in test [3] came to 1.06.

B10: VHH216B2 (VHH)
VHH: QVQLVESGGGLVQPGGSLRLSCATSEHTFGTYRMGWFRQAPGKEREFVAGISWTGQTTYYAASVKGRFAISKDNAKNTVYLQMNTLKSDDTAVYYCAVETNNLGRWDRPSEYDYWGQGTQVTVSS
Regarding B10, the FOB in test [5] amounted to 0.98 fold.

B11: VHH276B1 (VHH)
VHH: QVQLVESGGGLVQAGASLRLSCAASGRTFSSYAMGWFRQAPGKEREFVAAISGGTPNNIYYTNYKDAVRGRFTISRDNAKNTVYLQMSSLKPEDTAVYYCGATMGRYWNTGGYDYWGQGTQVTVSS
For B11, the FOB in test [1] came out at 31 fold; in test [2], 24 fold. Also, in test [3], the OD450 nm stood at 3.2.

B12: VHH41B1 (VHH)
VHH: EVQLVESGGGLVQAGGSLRVACAASGRTFSTYAMAWFRQAPGKEREFVAHILWSGGSTVYPDSVRGRFTISRDNAKNTVYLQMNSLKPEDTAVYYCAQKSGRQVYRIDSWDSFDYWGQGTSVTVSS
Turning to B12, the FOB in [1] was determined as 48 fold; in test [2], 19 fold. In addition, the OD450 nm in [3] came to 0.413.

B13: VHH229B2 (VHH)
VHH: QVQLVESGGGLVQAGGSLRLSCAASGRTFSSYAMGWFRQAPGKEREFVSAISWNGGSRYYVESVEGRFTISRDNAKNTVYLQMNSLKPEDTAVYYCAASRIYTNYVARSYEYDDWGQGTQVTVSS
For B13, the FOB was found to be 1.42 fold in [4] and 1 fold in [5].

B14: 85801_10K15 (antibody, V domains shown)
VH: QITLKESGPTLVKPTQTLTLTCTFFGFSLNTGGVGVGWIRQPPGKALEWLTLIYWNDDKRYSPSLKSRLTITKDTSKNQVVLTMTNMDPVDTATYYCAHTLRWYHGFDIWGQGTMVTVSS
VL: QTVVTQEPSFSVSPGGTVTLTCGLTSGSVSTSYYPSWYQQTPGQAPRTLIYSTYTRSSGVPDRFSGSILGNKAALTITGAQADDESDYYCVLYMGSGIWVFGGGTKLTVL
notes: also called 85801_10K15A
Take B14: the “Fold over parental 293T” value came to 57 fold in [6] and 21 fold in [7].
